Assay results: patent publication US5804412
One block for each substance: values may come before it.

Assays:
[1] = target: EGFR core tyrosine kinase domain (residues 663-958) fused to LexA (human) (UniProt P00533); experiment: yeast two hybrid, LexA-EGFR bait and SNX1-B42 prey, galactose against dextrose control
[2] = target: endogenous EGFR of CV-1 cells (monkey (endogenous EGFR of CV-1 monkey kidney cells))
[3] = target: endogenous EGFR of CV-1 cells (monkey (endogenous EGFR of CV-1 monkey kidney cells)); experiment: Scatchard analysis of 125I-EGF binding to SNX1 transfected CV-1 cells
[4] = target: endogenous EGFR of CV-1 cells (monkey (endogenous EGFR of CV-1 monkey kidney cells)); experiment: Scatchard analysis of 125I-EGF binding to vector transfected control CV-1 cells

- induction of β-gal activity in response to galactose induction [1]: 400 x
Substance: carboxy terminal 58 amino acids of SNX1 fused to the B42 acid patch transcriptional activation domain

- EGFR half life (35S-methionine pulse chase, immunoprecipitation) [2]: 2 h
Substance: human SNX1 (sorting nexin 1), full length

- Kd [3]: 1.34 nM
- Kd [4]: 0.73 nM
Substance: 125I-EGF (ligand)
